Measured values taken from PMC7689490 (Nature Communications, 2020).
[ ]: non-standard residue; d: D form. Fluos = fluorescein label; Ahx = NCCCCCC(=O)O

Target: T1, macrophage migration-inhibitory factor (MIF), recombinant human, unlabelled (human, UniProt P14174 1-115)
T1 construct: human MIF; For some biophysical methods a 90-95% pure preparation was used; also called WT-MIF; human MIF
T1 sequence (looked up): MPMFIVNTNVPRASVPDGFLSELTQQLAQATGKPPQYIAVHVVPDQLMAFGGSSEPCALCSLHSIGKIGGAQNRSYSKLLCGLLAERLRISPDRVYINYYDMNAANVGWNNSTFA
Test: other fluorescence titration; Fluos-labelled CXCR4 ectodomain peptide at 5 nM titrated with unlabelled MIF, MIF(10xAla), CXCL12 or MIF peptide fragments; 10 mM sodium phosphate, pH 7.4, 1% HFIP; emission at 522 nm; apparent KD, 1/1 binding model
Settings: both partners purified

Kd: > 1000 nM
B1: Fluos-[A^102, A^103, A^104, A^107, A^189, A^190, A^195]-msR4M-L1 (designed binder)
chain: Fluos-DAVANAAAGNALCK[Ahx][Ado]DRYICDRAAPNDLAV-NH2
modifications: cysteine pairing not given here
notes: The functional assays used the unlabelled peptide; also called Fluos-msR4M-L1(7xAla); source: synthetic peptide (Fmoc SPPS on Rink amide MBHA resin, RP-HPLC purified)
